Drawing on patent US20110065176A1, this text covers Kd, koff and kon for one substance.

This assay concerns the target KDR(ECD1-3)-Fc (human) (UniProt P35968). Kind of assay: BIAcore; KDR(ECD1-3)-Fc immobilized on CM5 chip, IgG in flow. Background: In SPR one partner is held on a chip, and binding of the other changes the refractive index at the surface.

Sequence of KDR(ECD1-3)-Fc (human) (P35968 other isoform, or with tags, fused parts or gaps limits assumed, form in doubt): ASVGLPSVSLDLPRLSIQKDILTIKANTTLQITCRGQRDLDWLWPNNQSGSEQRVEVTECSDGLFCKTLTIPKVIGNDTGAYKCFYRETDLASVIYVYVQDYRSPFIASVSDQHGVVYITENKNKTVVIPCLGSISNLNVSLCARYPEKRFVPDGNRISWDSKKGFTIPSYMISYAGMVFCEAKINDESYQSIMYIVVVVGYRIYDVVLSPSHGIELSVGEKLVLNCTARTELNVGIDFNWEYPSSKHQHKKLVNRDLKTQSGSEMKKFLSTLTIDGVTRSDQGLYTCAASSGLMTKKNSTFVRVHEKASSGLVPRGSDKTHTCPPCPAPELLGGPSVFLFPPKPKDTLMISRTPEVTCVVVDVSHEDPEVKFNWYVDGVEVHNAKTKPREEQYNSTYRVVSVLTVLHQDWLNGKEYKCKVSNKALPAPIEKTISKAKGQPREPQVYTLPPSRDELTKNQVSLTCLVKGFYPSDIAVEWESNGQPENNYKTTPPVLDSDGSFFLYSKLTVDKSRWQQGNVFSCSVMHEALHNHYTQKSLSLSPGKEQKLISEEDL

As for IMC-1121 IgG (reconstructed) (antibody), the Kd stood at 0.385 nM, the koff turned out to be 8.75e-05 s⁻¹ and the kon worked out at 227000 M⁻¹ s⁻¹.

The term Kd denotes a measure of binding affinity in units of concentration. A high value points to weaker binding. A word on the koff: it is the rate constant with which the complex falls apart. Lower therefore signals a long-lived complex. Broadly, the kon is the rate constant with which the complex forms.
